What was measured:
Format in all cases: in vivo, rat
[1] = system: adult male rats bilaterally exposed to noise; assay: Noise-induced cochlear synaptopathy, ABR and wave I amplitude after delayed intratympanic injection (Example L); details: for ABR threshold shift: ABR at day 28, FIG. 21; for wave I amplitudes: day 28, FIG. 22
Protocol: (§1) Animals: Male Sprague-Dawley rats (5-6 months of age) were used for efficacy studies and females (2-3 months) were used for pharmacokinetic studies.
Formulations: Human recombinant BDNF was suspended in the thermoreversible polymer Poloxamer 407 (16%) to reach a BDNF concentration of 0.005%.
(§2) Intratympanic (IT) injection: Formulations were administered under anesthesia as a single IT injection (20 μl) through the tympanic membrane into the middle ear, targeting the round window membrane (RWM).
Noise-induced cochlear synaptopathy: Rats received a single acoustic trauma (105 dB SPL, 8-16 kHz, 1 h) under anesthesia. […] Auditory function (ABR and ABR wave 1 amplitude) was monitored at day 28. At termination (Day 28), cochleae were collected and assessed for evidence of cochlear synaptopathy (IHC synaptic puncta counts).
Intratympanic BDNF Injected 1, 3, or 7 Days After Acoustic Trauma improves Auditory Brainstem Response (ABR) thresholds and wave I amplitudes in adult rats. The Auditory Brainstem Response (ABR) is an objective test that measures hearing sensitivity and can identify abnormalities in the peripheral auditory system and the auditory pathway up through the brainstem. Adult male rats were bilaterally exposed to noise followed by an intratympanic injection of 0.005% BDNF in P407 1 day, 3 days, 7 days, or 14 days after noise exposure. ABR recordings were obtained at day 28.
The ABR Wave I amplitude is an indicator of the strength of the distal cochlear nerve signal, i.e., the response of the spiral ganglion neurons/synapses.

[2] = system: noise exposed adult rats; assay: Noise-induced hearing loss/synaptopathy, synaptic analysis of inner hair cells (Example A1); details: sustained release formulation, 0.005% BDNF in Poloxamer 407, single unilateral intratympanic administration 24 hrs after noise; Day 28; compared to vehicle treatment; FIG. 3B
Protocol: Male rats (Charles River) approximately 10-11 months of age served as subjects (N=6 per group). Prior to any procedures, animals were anesthetized using a combination of xylazine (10 mg/kg) and ketamine (90 mg/kg) for up to one hour via the intraperitoneal route. If needed, an intraoperative booster was administered intraperitoneally representing one-tenth of the original dose.
Noise exposure—Anesthetized animals (4 at a time) were placed in an enclosure and exposed to noise. The characteristics of the acoustic trauma were as follows: a single period of 1 h, sound pressure level of 105 dB SPL with a narrow band pass of 8-16 kHz. Noise was delivered using a Grason Stadler white noise generator, filtered through a Krohn Hite 3750 unit, amplified using a Crown D75 unit, and conveyed via a JBL speaker (model 2446H). Following treatment, the animals were returned to the vivarium. Noise exposure was calibrated over a range of 80-115 dB SPL across a wide range of frequencies using the Acoustical Interface Precision Microphone System and the Tucker Davis Technologies system. […]
Synaptic Analysis—Flat-mounted cochlear pieces from each ear were imaged at low magnification (10×) and the total length of the imaged tissue was measured and the frequency domains (4, 10, 20 and 40 kHz) were mapped onto the images. […]

[3] = system: adult male rats bilaterally exposed to noise; assay: Noise-induced cochlear synaptopathy, ABR and wave I amplitude at various BDNF concentrations (Example K); details: at all three BDNF concentrations (0.005%, 0.05%, 0.5% BDNF in P407), vs P407 vehicle alone
Protocol: as §1
Formulations: Human recombinant BDNF was suspended in the thermoreversible polymer Poloxamer 407 (16%) to reach a range of BDNF concentrations (0.005%, 0.05%, and 0.5% by weight).
as §2
Noise-induced cochlear synaptopathy: Rats received a single acoustic trauma (105 dB SPL, 8-16 kHz, 1 h) under anesthesia. 24 hours later (Day 1) animals received a single bilateral IT injection of the treatment regimens. Auditory function (ABR and ABR wave 1 amplitude) was monitored at day 1 and then every 7 days for 28 days, as illustrated in FIG. 16. At termination (Day 28), cochleae were collected and assessed for evidence of cochlear synaptopathy (IHC synaptic puncta counts).
Intratympanic BDNF improves Auditory Brainstem Response (ABR) thresholds and wave I amplitudes in adult rats. The Auditory Brainstem Response (ABR) is an objective test that measures hearing sensitivity and can identify abnormalities in the peripheral auditory system and the auditory pathway up through the brainstem. […]

[4] = 0.005% BDNF in P407 injected 1, 3, or 7 days after noise exposure
[5] = 0.005% BDNF in P407 injected 14 days after noise exposure

B1: brain-derived neurotrophic factor (protein, UniProt P23560 129-247, looked up)
Neurotrophic factor BDNF: HSDPARRGELSVCDSISEWVTAADKKTAVDMSGGTVTVLEKVPVSKGQLKQYFYETKCNPMGYTKEGCRGIDKRHWNSQCRTTQSYVRALTMDSKKRIGWRFIRIDTSCVCTLTIKRGR
modifications: Neurotrophic factor BDNF in 16% poloxamer 407 gel
notes: Human recombinant BDNF
ABR threshold shift [1, 4]: more rapid recovery of initial threshold shifts and overall reduced levels of hearing loss
wave I amplitudes [1, 4]: significant improvements
ABR threshold shift [1, 5]: did not showed a more rapid recovery of initial threshold shifts and overall reduced levels of hearing loss
wave I amplitudes [1, 5]: did not show significant improvements
number of ribbon synapses per inner hair cell [2]: increased
ABR threshold shift ([3]; intratympanic injection 24 hours after noise exposure, FIG. 17): more rapid recovery of initial threshold shifts and overall reduced levels of hearing loss
wave I amplitudes ([3]; FIG. 18): significant improvements

Source: US20230122991A1, “GROWTH FACTOR FORMULATION FOR CONDITION ASSOCIATED WITH OTIC EVENT” (OTONOMY, INC., priority 2020, published 2023)
